Target: human prostate-specific membrane antigen (PSMA) (human, UniProt Q04609 1-750)
Test: cell-based or functional assay

human prostate-specific membrane antigen (PSMA), sequence (Q04609 whole entry): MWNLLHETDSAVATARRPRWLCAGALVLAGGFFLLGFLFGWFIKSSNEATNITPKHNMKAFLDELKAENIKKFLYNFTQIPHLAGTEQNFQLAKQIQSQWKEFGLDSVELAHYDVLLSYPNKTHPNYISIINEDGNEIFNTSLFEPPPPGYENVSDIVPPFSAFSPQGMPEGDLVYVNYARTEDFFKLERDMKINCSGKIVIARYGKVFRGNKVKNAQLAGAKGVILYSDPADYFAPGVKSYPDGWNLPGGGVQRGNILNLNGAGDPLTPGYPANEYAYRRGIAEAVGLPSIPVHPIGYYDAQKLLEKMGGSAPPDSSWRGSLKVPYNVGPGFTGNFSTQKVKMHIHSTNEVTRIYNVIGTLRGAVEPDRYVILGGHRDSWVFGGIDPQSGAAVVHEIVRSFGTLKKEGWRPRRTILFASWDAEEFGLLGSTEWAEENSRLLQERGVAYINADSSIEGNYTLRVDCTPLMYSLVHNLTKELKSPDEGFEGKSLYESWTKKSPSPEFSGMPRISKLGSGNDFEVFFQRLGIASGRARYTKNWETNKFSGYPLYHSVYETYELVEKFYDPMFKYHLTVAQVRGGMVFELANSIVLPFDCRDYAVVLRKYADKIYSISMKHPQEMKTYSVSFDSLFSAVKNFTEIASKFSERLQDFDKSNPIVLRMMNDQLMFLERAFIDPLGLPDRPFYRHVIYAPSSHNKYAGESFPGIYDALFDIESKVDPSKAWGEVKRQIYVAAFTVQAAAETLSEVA

B1: P28z fusion receptor (J591 scFv - human CD28 hinge, transmembrane and intracellular portions - intracellular domain of human TCR zeta) (receptor, not shown: a dimerising Fc or GST; small tags and cut ends)
chain: IEVMYPPPYLDNEKSNGTIIHVKGKHLCPSPLFPGPSKPFWVLVVVGGVLACYSLLVTVAFIIFWVRSKRSRLLHSDYMNMTPRRPGPTRKHYQPYAPPRDFAAYRSRVKFSRSADAPAYQQGQNQLYNELNLGRREEYDVLDKRRGRDPEMGGKPRRKNPQEGLYNELQKDKMAEAYSEIGMKGERRRGKGHDGLYQGLSTATKDTYDALHMQALPPR
B1 was tested, and the “expansion in total cell number after re-stimulation with PSMA, seven days” value was 4 fold and the “expansion of transduced T cells on NIH3T3 cells expressing PSMA alone, seven days” value was 8.6 fold.

Reference: patent publication US20040043401A1 (SLOAN KETTERING INSTITUTE FOR CANCER RESEARCH, published 2004)
